Measured values as given in patent US20200140835.

Tests used:
[1] = tested on: Helical-III domain of SpCas9, supplied in trans
[2] = tested on: SpCas9 delta-Helical-III deletion F498-Q712 replaced by GGS linker (Streptococcus pyogenes); experiment: cleavage_in_vitro; settings: Helical-III in trans rescues ~100-fold; 5 mM MgCl2

## SpCas9ΔHelical-III (ΔF498-Q712 with GGS linker)
[1]
  cleavage with a PAM-distal mismatched target: had no effect on cleavage with a PAM-distal mismatched target
  on-target cleavage rate (radiolabeled DNA cleavage assay): rescued the on-target cleavage rate by ˜100-fold in a concentration-dependent manner

## lambda1-targeting sgRNA ; lambda1 on-target DNA
[2]
  activity (fold decrease vs WT): 1000
